This is an account of results in the supplement of paper PMC7877785.

± gives the uncertainty stated by the source.

This data set in a line: self-splicing fitness, log relative to wild type (ln ratio); higher = more splicing; Tetrahymena group I intron in knt gene, E. coli kanamycin selection, DiMSum; sequences stand for … in CUCUCU…GGAGGGAAAAGUUAUCAGGCAUGCACCUGGUAGCUAGUCUUUAAACCAAUAGAUUGCAUCGGUUUAAAAGGCAAGACCGUCAAAUUGCGGGAAAGGGGUCAACAGCCGUUCAGUACCAAGUCUCAGGGGAAACUUUGAGAUGGCCUUGCAAAGGGUAUGGUAAUAAGCUGACGGACAUGGUCCUAACCACGCAGCCAAGUCCUAAGUCAACAGAUCUUCUGUUGAUAUGGAUGCAGUUCACAGACUAAAUGUCGGUCGGGGAAGAUGUAUUCUUCUCAUAAGAUAUAGUCGGACCUCUCCUUAAUGGGAGCUAGCGGAUGAAGUGAUGCAACACUGGAGCCGCUGGGAACUAAUUUGUAUGCGAAAGUAUAUUGAUUAGUUUUGGAGUACUCGUGGUCG
In short, it runs like this: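 The eight P1ex-region nucleotides of an intron in the knt kanamycin-resistance gene on pET-22b(+) were all randomised and the library put into E. coli BL21(DE3). Six replicate transformations were grown overnight at 37°C or 30°C on LB agar with or without 25 μg/mL kanamycin, together with 100 μg/mL carbenicillin, 50 μM IPTG and 0.2% rhamnose. Colonies were pooled and amplicon-sequenced on an Illumina HiSeq 2500. Fitness from DiMSum is the error-weighted combination of wild-type-normalised replicate fold changes, kanamycin over none.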

CCUCAGCAAUAUUACGGUUU: the “self-splicing fitness (ln)” value runs as follows: (30 °C) -3.37 ± 0.13; (37 °C) -2.73 ± 0.16.
The like results for CCUCAGCAAUAUUACGUAAU were, in that order, -4.03 ± 0.21 and -2.74 ± 0.22.
The like results for CCUCAGCAAUAUUACGUCAA were, in that order, -4.15 ± 0.31 and -3.11 ± 0.29.
The like results for CCUCAGCAAUAUUACGUGGG were, in that order, -4.89 ± 0.25 and -3.15 ± 0.19.
In the case of CCUCAGCAAUAUUACGUUCU, the “self-splicing fitness (ln)” value by setting is: (30 °C) -4.28 ± 0.34; (37 °C) -3.23 ± 0.36.
The like results for CCUGAGCAAUAUUACGAACG were, in that order, -2.81 ± 0.26 and -1.48 ± 0.27.
The like results for CCUGAGCAAUAUUACGACGC were, in that order, -3.08 ± 0.47 and -0.889 ± 0.22.
The like results for CCUGAGCAAUAUUACGACUA were, in that order, -2.81 ± 0.25 and -1.79 ± 0.24.
Turning to CCUGAGCAAUAUUACGCAGC, the “self-splicing fitness (ln)” value (37 °C) is -1.38 ± 0.3.
Consider CCUGAGCAAUAUUACGCGGU, for which the “self-splicing fitness (ln)” value (30 °C) is -3.87 ± 0.21 and the “self-splicing fitness (ln)” value (37 °C) was -1.54 ± 0.16.
The like results for CCUGAGCAAUAUUACGCUAG were, in that order, -3.02 ± 0.19 and -1.27 ± 0.17.
The like results for CCUGAGCAAUAUUACGCUCU were, in that order, -3.59 ± 0.43 and -2.26 ± 0.25.
The like results for CCUGAGCAAUAUUACGCUGU were, in that order, -4.99 ± 0.46 and -2.85 ± 0.23.
As to CCUGAGCAAUAUUACGGACG, the “self-splicing fitness (ln)” value (30 °C) was -2.49 ± 0.16 and the “self-splicing fitness (ln)” value (37 °C) is -0.682 ± 0.12.
The like results for CCUGAGCAAUAUUACGGAUU were, in that order, -2.74 ± 0.18 and -2.34 ± 0.16.
Take CCUGAGCAAUAUUACGGCCU: the “self-splicing fitness (ln)” value was -2.68 ± 0.17 (30 °C) and -2.96 ± 0.3 (37 °C).
Consider CCUGAGCAAUAUUACGGGGG, for which the “self-splicing fitness (ln)” value was -3.15 ± 0.16 (30 °C) and -1.55 ± 0.22 (37 °C).
On to CCUGAGCAAUAUUACGUAGA, for which the “self-splicing fitness (ln)” value is -3.23 ± 0.13 (30 °C) and -2.26 ± 0.14 (37 °C).
Turning to CCUGAGCAAUAUUACGUAUC, the “self-splicing fitness (ln)” value (37 °C) was -2.46 ± 0.23.
In the case of CCUGAGCAAUAUUACGUGCA, the “self-splicing fitness (ln)” value was -3.09 ± 0.21 (30 °C) and -1.53 ± 0.26 (37 °C).
The like results for CCUGAGCAAUAUUACGUGCG were, in that order, -3.69 ± 0.22 and -1.04 ± 0.16.
The like results for CCUGAGCAAUAUUACGUUAG were, in that order, -3.86 ± 0.17 and -2.29 ± 0.12.
The like results for CCUUAGCAAUAUUACGAAAG were, in that order, -1.96 ± 0.11 and -1.45 ± 0.089.
Consider CCUUAGCAAUAUUACGAGAG, for which the “self-splicing fitness (ln)” value (30 °C) is -2.05 ± 0.11 and the “self-splicing fitness (ln)” value (37 °C) is -1.42 ± 0.1.
The matching figures for CCUUAGCAAUAUUACGAGGG: -3.54 ± 0.24 and -1.39 ± 0.21.
The like results for CCUUAGCAAUAUUACGAGUA were, in that order, -2.81 ± 0.29 and -2.42 ± 0.26.
The like results for CCUUAGCAAUAUUACGAUGG were, in that order, -2.24 ± 0.13 and -2.26 ± 0.16.
In the case of CCUUAGCAAUAUUACGCACG, for the setting “30 °C”, the “self-splicing fitness (ln)” value was -2.02 ± 0.35.
Take CCUUAGCAAUAUUACGCAGA: the “self-splicing fitness (ln)” value by setting is: (30 °C) -3.11 ± 0.36; (37 °C) -2.72 ± 0.3.
Regarding CCUUAGCAAUAUUACGCGCC, under “30 °C”, the “self-splicing fitness (ln)” value is -2.8 ± 0.4.
Consider CCUUAGCAAUAUUACGGCAU, for which the “self-splicing fitness (ln)” value runs as follows: (30 °C) -3.41 ± 0.19; (37 °C) -2.88 ± 0.32.
The matching figures for CCUUAGCAAUAUUACGUAAU: -3.24 ± 0.29 and -1.81 ± 0.16.
The like results for CCUUAGCAAUAUUACGUCAG were, in that order, -3.79 ± 0.35 and -2.74 ± 0.31.
On to CCUUAGCAAUAUUACGUCUG, for which the “self-splicing fitness (ln)” value is, setting by setting: (30 °C) -2.99 ± 0.1; (37 °C) -1.48 ± 0.096.
CCUUAGCAAUAUUACGUGAG: the “self-splicing fitness (ln)” value is -1.35 ± 0.068 (30 °C) and 0.0439 ± 0.088 (37 °C).
As for CCUUAGCAAUAUUACGUGAU, the “self-splicing fitness (ln)” value reads like this: (30 °C) -3.66 ± 0.2; (37 °C) -2 ± 0.24.
The like results for CCUUAGCAAUAUUACGUUAC were, in that order, -3.65 ± 0.35 and -2.91 ± 0.29.
As for CGAAAGCAAUAUUACGAUAA, the “self-splicing fitness (ln)” value reads like this: (30 °C) -2.44 ± 0.17; (37 °C) -0.695 ± 0.12.
The matching figures for CGAAAGCAAUAUUACGAUGC: -2.67 ± 0.39 and -1.35 ± 0.27.
On to CGAAAGCAAUAUUACGAUUU, for which the “self-splicing fitness (ln)” value was -2.12 ± 0.09 (30 °C) and -0.815 ± 0.099 (37 °C).
Regarding CGAAAGCAAUAUUACGCCCG, the “self-splicing fitness (ln)” value was -1.9 ± 0.18 (30 °C) and -0.623 ± 0.21 (37 °C).
The like results for CGAAAGCAAUAUUACGCCGA were, in that order, -1.99 ± 0.24 and -0.323 ± 0.15.
The matching figures for CGAAAGCAAUAUUACGCUAG: -2.3 ± 0.12 and -1.57 ± 0.12.
The matching figures for CGAAAGCAAUAUUACGCUUG: -2.51 ± 0.087 and -2.15 ± 0.091.
Consider CGAAAGCAAUAUUACGGAAG, for which the “self-splicing fitness (ln)” value is, setting by setting: (30 °C) -0.208 ± 0.097; (37 °C) -0.546 ± 0.11.
The matching figures for CGAAAGCAAUAUUACGGACC: -0.938 ± 0.11 and 0.398 ± 0.13.
For CGAAAGCAAUAUUACGGAGU, the “self-splicing fitness (ln)” value was -3.55 ± 0.19 (30 °C) and -2.42 ± 0.17 (37 °C).
The matching figures for CGAAAGCAAUAUUACGGCAC: -2.6 ± 0.15 and 0.387 ± 0.21.
The like results for CGAAAGCAAUAUUACGGCGA were, in that order, -0.763 ± 0.11 and -0.486 ± 0.11.
The matching figures for CGAAAGCAAUAUUACGGCUU: -4.2 ± 0.22 and -2.79 ± 0.3.
CGAAAGCAAUAUUACGGGGG: the “self-splicing fitness (ln)” value by setting is: (30 °C) -2.85 ± 0.14; (37 °C) -1.96 ± 0.13.
The like results for CGAAAGCAAUAUUACGGGUU were, in that order, -3.58 ± 0.21 and -2.74 ± 0.19.
Consider CGAAAGCAAUAUUACGGUAC, for which the “self-splicing fitness (ln)” value (30 °C) was -2.51 ± 0.29.
As for CGAAAGCAAUAUUACGUACU, the “self-splicing fitness (ln)” value runs as follows: (30 °C) -0.756 ± 0.078; (37 °C) 0.23 ± 0.098.
The matching figures for CGAAAGCAAUAUUACGUCCG: -1.22 ± 0.088 and -0.637 ± 0.12.
On to CGAAAGCAAUAUUACGUCUU, for which the “self-splicing fitness (ln)” value reads like this: (30 °C) -2.8 ± 0.13; (37 °C) -1.87 ± 0.16.
Regarding CGAAAGCAAUAUUACGUGAU, the “self-splicing fitness (ln)” value reads like this: (30 °C) -2.36 ± 0.11; (37 °C) -1.95 ± 0.14.
The matching figures for CGAAAGCAAUAUUACGUGGA: -3.24 ± 0.13 and -1.66 ± 0.096.
The matching figures for CGAAAGCAAUAUUACGUUAU: -3.68 ± 0.31 and -3.5 ± 0.29.
The like results for CGACAGCAAUAUUACGAACU were, in that order, -1.16 ± 0.13 and -0.845 ± 0.15.
Regarding CGACAGCAAUAUUACGAGUA, the “self-splicing fitness (ln)” value reads like this: (30 °C) -3.58 ± 0.18; (37 °C) -1.52 ± 0.12.
As to CGACAGCAAUAUUACGAUAU, the “self-splicing fitness (ln)” value was -2.96 ± 0.14 (30 °C) and -2.84 ± 0.12 (37 °C).
The matching figures for CGACAGCAAUAUUACGCAAG: -1.28 ± 0.081 and -0.83 ± 0.097.
Take CGACAGCAAUAUUACGCAGU: the “self-splicing fitness (ln)” value was -3.75 ± 0.22 (30 °C) and -2.05 ± 0.23 (37 °C).
Consider CGACAGCAAUAUUACGCCCU, for which the “self-splicing fitness (ln)” value (30 °C) was -1.46 ± 0.1 and the “self-splicing fitness (ln)” value (37 °C) is -0.191 ± 0.11.
The matching figures for CGACAGCAAUAUUACGCCGU: -2.62 ± 0.35 and -1.55 ± 0.33.
The like results for CGACAGCAAUAUUACGCUAU were, in that order, -3.71 ± 0.23 and -2.04 ± 0.14.
The matching figures for CGACAGCAAUAUUACGCUUA: -2.2 ± 0.14 and -1.78 ± 0.12.
On to CGACAGCAAUAUUACGCUUC, for which the “self-splicing fitness (ln)” value (37 °C) was -3.09 ± 0.43.
On to CGACAGCAAUAUUACGCUUG, for which the “self-splicing fitness (ln)” value by setting is: (30 °C) -1.8 ± 0.098; (37 °C) -1.22 ± 0.12.
The matching figures for CGACAGCAAUAUUACGGAAG: -2.1 ± 0.068 and -1.24 ± 0.083.
CGACAGCAAUAUUACGGACG: the “self-splicing fitness (ln)” value is, setting by setting: (30 °C) -2.24 ± 0.11; (37 °C) -1.33 ± 0.15.
The matching figures for CGACAGCAAUAUUACGGCAU: -3.08 ± 0.21 and -2.16 ± 0.25.
The like results for CGACAGCAAUAUUACGGCGA were, in that order, -1.65 ± 0.14 and -0.523 ± 0.13.
The like results for CGACAGCAAUAUUACGGCGC were, in that order, -3.37 ± 0.24 and -0.977 ± 0.15.
For CGACAGCAAUAUUACGGCGG, the “self-splicing fitness (ln)” value by setting is: (30 °C) -0.174 ± 0.078; (37 °C) 0.335 ± 0.11.
The like results for CGACAGCAAUAUUACGGCGU were, in that order, -3.22 ± 0.088 and -1.59 ± 0.074.
